Columns and labels:
[1] = biological target: T1, human GUCY2C (hGUCY2C) on cells (human, UniProt P25092 24-1073); experiment: flow cytometry on CT26.hGUCY2C cells
T1 construct: whole, on cells; also called guanylyl cyclase C; GCC
Excerpt: Cells were authenticated by the original suppliers and routinely authenticated by morphology, growth, antibiotic resistance (where appropriate GUCY2C and β-galactosidase expression, and pattern of metastasis in vivo and routinely screened for mycoplasma using the Universal Mycoplasma Detection Kit (ATCC, Cat. No. 30-1012K). Before injection into mice, cells were routinely cultured for <2weeks. The gene encoding human GUCY2C was codon-optimized and synthesized (Gene Art, Life Technologies) and cloned into the retroviral construct pMSCVpuro (Clontech). CT26.hGUCY2C and CT26.CL25.hGUCY2C were generated by transducing CT26 and CT26.CL25 cells with retroviral supernatants encoding hGUCY2C, followed by selection with puromycin. […] The single chain variable fragment (scFv) from the human GUCY2C-specific antibody 5F9 was cloned into the pFUSE-rIgG-Fc2 (IL2ss) plasmid (Invivogen), producing a 5F9 scFv fusion protein with rabbit Fc (5F9-rFc), 5F9-rFc was collected in supernatants of transfected 293F cells (Life Technologies), titrated in ELISA plates (Nunc-Immuno PolySorp) coated with BSA or recombinant 6×His-tagged hGUCY2C extracellular domain (6×His-hGUCY2CECD) protein purified under contract from HEK293-6E cells by GenScript and detected with HRP-conjugated goat anti-rabbit (Jackson ImmunoResearch). […]

[2] = biological target: T2, recombinant 6xHis-tagged hGUCY2C extracellular domain (6xHis-hGUCY2CECD) (human, UniProt P25092 24-430); experiment: ELISA; plate coated with 6xHis-hGUCY2CECD, 5F9-rFc titrated
T2 construct: extracellular domain; also called purified hGUCY2C extracellular domain; immobilized hGUCY2CECD protein; not shown: 6xHis tag
T2 sequence (P25092 24-430): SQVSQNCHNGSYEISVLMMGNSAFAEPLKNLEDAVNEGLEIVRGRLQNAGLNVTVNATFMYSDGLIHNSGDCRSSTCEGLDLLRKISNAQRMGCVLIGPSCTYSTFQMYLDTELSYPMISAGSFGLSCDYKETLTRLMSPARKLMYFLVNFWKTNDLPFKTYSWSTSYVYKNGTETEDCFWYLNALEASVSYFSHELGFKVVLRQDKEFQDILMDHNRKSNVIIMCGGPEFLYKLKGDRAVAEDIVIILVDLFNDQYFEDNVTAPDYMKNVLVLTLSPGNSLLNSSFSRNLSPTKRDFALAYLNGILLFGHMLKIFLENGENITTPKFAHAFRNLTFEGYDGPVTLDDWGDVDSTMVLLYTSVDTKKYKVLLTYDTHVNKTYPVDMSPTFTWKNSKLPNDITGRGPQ

T1 sequence (P25092 24-1073): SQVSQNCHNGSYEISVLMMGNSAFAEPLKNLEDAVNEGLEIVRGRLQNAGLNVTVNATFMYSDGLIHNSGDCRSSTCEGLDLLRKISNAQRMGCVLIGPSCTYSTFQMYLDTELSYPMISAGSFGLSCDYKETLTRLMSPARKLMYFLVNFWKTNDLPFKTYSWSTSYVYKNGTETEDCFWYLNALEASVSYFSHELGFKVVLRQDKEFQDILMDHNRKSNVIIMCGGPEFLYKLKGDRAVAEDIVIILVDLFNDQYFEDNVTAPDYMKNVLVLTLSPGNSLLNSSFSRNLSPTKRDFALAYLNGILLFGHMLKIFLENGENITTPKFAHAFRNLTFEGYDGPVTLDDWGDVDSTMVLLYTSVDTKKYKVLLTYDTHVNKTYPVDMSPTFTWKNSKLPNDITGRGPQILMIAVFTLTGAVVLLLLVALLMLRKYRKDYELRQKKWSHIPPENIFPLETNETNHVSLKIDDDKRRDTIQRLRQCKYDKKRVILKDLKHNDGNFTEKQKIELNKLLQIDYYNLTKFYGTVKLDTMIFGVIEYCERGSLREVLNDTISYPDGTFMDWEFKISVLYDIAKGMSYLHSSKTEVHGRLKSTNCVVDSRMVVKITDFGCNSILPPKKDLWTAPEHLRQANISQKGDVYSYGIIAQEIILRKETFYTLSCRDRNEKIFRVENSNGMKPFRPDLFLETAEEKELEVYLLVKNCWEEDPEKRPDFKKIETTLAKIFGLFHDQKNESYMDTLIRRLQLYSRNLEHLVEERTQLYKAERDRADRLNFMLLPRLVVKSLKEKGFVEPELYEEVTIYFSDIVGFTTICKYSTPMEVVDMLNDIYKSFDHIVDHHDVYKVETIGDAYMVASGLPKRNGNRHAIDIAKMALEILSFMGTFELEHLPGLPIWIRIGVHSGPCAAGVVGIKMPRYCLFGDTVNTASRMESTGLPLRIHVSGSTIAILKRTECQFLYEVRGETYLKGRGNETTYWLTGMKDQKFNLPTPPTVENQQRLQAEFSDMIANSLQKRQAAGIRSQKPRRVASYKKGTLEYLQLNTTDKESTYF

binding result [1]: binds
binding result [2]: binds
B1: 5F9 scFv fusion protein with rabbit Fc (5F9-rFc) (Fc fusion)
chain: EIVMTQSPATLSVSPGERATLSCRASQSVSRNLAWYQQKPGQAPRLLIYGASTRATGIPARFSGSGSGTEFTLTIGSLQSEDFAVYYCQQYKTWPRTFGQGTNVEIKASGGGGSGGGGSGGGGSGGGGSELQVQLQQWGAGLLKPSETLSLTCAVFGGSFSGYYWSWIRQPPGKGLEWIGEINHRGNTNDNPSLKSRVTISVDTSKNQFALKLSSVTAADTAVYYCARERGYTYGNFDHWGQGTLVTVSS
notes: Secreted from transfected 293F cells and used as supernatant; also called recombinant 5F9 antibody; 5F9 antibody; not shown: rabbit IgG Fc from plasmid pFUSE-rIgG-Fc2 (IL2ss) (Invivogen)
